Experiments:
[1] = target: T1, GST-SND1 (NST3) (Arabidopsis thaliana) (UniProt Q9LPI7); assay: EMSA; settings: 10 mM Tris pH 7.5, 50 mM KCl, 1 mM DTT, 2.5% glycerol, 5 mM MgCl2, 0.1% IGEPAL CA-630, 0.05 ug/ul calf thymus DNA, 150 ng protein, 30 min room temperature
T1 sequence: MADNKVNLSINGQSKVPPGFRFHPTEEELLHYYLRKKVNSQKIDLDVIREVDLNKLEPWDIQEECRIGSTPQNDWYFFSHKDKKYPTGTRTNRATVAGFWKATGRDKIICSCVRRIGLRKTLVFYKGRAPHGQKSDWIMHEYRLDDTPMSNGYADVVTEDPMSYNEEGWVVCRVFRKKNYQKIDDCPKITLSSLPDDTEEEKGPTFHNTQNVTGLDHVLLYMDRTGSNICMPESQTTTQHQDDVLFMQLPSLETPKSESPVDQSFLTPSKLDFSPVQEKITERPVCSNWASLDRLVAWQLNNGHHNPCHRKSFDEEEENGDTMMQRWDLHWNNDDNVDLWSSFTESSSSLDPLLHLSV

[2] = target: T2, GST-NST2 (Arabidopsis thaliana) (UniProt Q9M274); assay: EMSA; settings: 10 mM Tris pH 7.5, 50 mM KCl, 1 mM DTT, 2.5% glycerol, 5 mM MgCl2, 0.1% IGEPAL CA-630, 0.05 ug/ul calf thymus DNA, 150 ng protein, 30 min room temperature
T2 sequence: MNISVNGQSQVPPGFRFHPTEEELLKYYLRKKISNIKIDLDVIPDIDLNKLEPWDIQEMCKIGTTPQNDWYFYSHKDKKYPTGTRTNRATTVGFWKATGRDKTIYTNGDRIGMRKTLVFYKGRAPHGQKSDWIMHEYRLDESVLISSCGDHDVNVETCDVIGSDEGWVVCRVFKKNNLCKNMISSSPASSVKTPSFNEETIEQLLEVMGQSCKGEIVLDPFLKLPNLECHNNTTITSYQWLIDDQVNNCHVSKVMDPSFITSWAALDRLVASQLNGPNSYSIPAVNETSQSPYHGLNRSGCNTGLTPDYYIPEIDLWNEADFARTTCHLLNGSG

| Sequence | binding [1] | binding [2] |
| --- | --- | --- |
| CCAGATTTGGTAAAGTTTATAAGATACAAAATATTAAGTAAGACTAAAGTAGAAATACATAATAACTTGAAAGCTACTCTAAGTTATACAAATTCTAAAGAACTCAAAAGAATAAC (double strand) [CESA4Bay-C] | binds | binds |
| GAAAGCTACTCTAAGTTATACAAATTCTAAAGAACTCAAAAGAATAACAAACAGTAGAAGTTGGAAGCTCAAGCAATTAAATTA (double strand) [CESA4Bay-D] | no binding | no binding |
| GAAAGCTACTCTAAGTTATACAAATTCTAAAGAACTCAAAAGAATAACAAACAGTAGAAGTTGGAAGCTCAAGCAATTAAATTA (double strand) [CESA4Sha-D] | no binding | no binding |
| GTTGGAAGCTCAAGCAATTAAATTATATAAAAACACTAACTACACTGAGCTGTCTCCTTCTTCCACCAAATCTTGTTGCTGTCTCTTGAAGCTTTCTTATGACAC (double strand) [CESA4Bay-E] | binds | binds |
| GTTGGAAGCTCAAGCAATTAAATTATATAAAAACACTAACTACACTGAGCTGTCTCCTTCTTCCACCAAATCTTGTTGCTGTCTCTTGAAGCTTTCTTATGACAC (double strand) [CESA4Sha-E] | binds | binds |

Reference: paper PMC6309453
